Laboratory results published in paper PMC11166458, “Caskin2 is a novel talin- and Abi1-binding protein that promotes cell motility” (Journal of Cell Science, 2024).
No end group written: not given here.

Biological target: talin-R7/R8 (residues 1358–1653) (mouse, UniProt P26039 1358-1653)
Test: MST; Atto488-labeled peptide at 50–200 nM, serial dilution of recombinant R7R8 talin; 20 mM Tris-HCl pH 7.5, 200 mM NaCl, 1 mM TCEP, 0.05% Tween-20; Monolith NT.115
Conditions: both partners purified

B1: Atto488-labeled Caskin2-LD peptide (peptide, UniProt Q8WXE0 1187-1202, looked up)
peptide: STMFDALADQLDAMLD
modifications: also: Atto488 label
notes: Caskin2 C-terminal LD motif peptide; limits 1187–1202 are printed for the Caskin2-LD peptide in the legend of the structure; The text names L1183 as a contact residue of the peptide, which lies outside 1187–1202; source: synthetic peptide (MPIB Core Facility)
  Kd: ~2700 nM
